Consider two substances from publication PMC10171801.

This assay deals with MAGI2 PDZ0-GK (mouse) (UniProt Q9WVQ1). As to the kind of experiment: ITC.
UniProt Q9WVQ1, sequence (Q9WVQ1 9-238): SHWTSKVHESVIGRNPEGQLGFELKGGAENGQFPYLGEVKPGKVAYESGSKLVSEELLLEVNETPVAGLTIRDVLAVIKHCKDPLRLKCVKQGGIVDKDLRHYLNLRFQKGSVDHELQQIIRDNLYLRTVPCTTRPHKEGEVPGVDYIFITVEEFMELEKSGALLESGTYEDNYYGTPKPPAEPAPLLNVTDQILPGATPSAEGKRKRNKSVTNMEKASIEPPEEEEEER

As for pSAPAP1-GBR2(E-1P) (peptide), the Kd turned out to be 0.07 µM.

pSAPAP1-GBR2(T+5F) (peptide): the dissociation constant (Kd) was found to be 0.07 µM.
